In this test the target is its substrates (DNA-bound substrates of p97 on plasmid isolated from extract with p97i). The test can be described thus: pull-down; dilution experiment: plasmid incubated 180 minutes in extract with CB-5083, isolated by plasmid pull-down, washed, resuspended in 100 volumes of ELB with or without 5 mM ATP, 21 °C; p97 retained on bead-bound DNA by Western blot over time. (In general: A western blot detects proteins with antibodies after separation by electrophoresis.)

The substance “p97 (endogenous, Xenopus egg extract) (from UniProt P23787 1-805) (natural protein)” returned a decrease of DNA-bound p97 within 180 minutes, with ATP of 90% and a decrease of DNA-bound p97 within 180 minutes, without ATP of 70%.

For the origin of these results see PMC6637110.
